# Laboratory results from US6939707B2, “Isolated nucleic acid molecules which encode GAGE genes and uses thereof” (Ludwig Institute for Cancer Research, priority 1993, dated 2005).
# How the values were obtained:
# [1] = test system: CTL 76/6; test: TNF release / recognition by CTL 76/6 of COS cells cotransfected with GAGE cDNA and HLA-Cw6 cDNA; type: cell-based, human; conditions: COS cells transfected with cDNA together with HLA-Cw6 cDNA (FIG. 2, FIG. 6)
# Experimental: Following preparation of the library described in Example 3, the cDNA was transfected into eukaryotic cells. The transfections, described herein, were carried out in duplicate. Samples of COS-7 cells were seeded, at 15,000 cells/well into tissue culture flat bottom microwells, in Dulbecco's modified Eagles Medium (“DMEM”) supplemented with 10% fetal calf serum. The cells were incubated overnight at 37° C., medium was removed and then replaced by 50 μl/well of DMEM medium containing 10% Nu serum, 400 μg/ml DEAE-dextran, and 100 μM chloroquine, plus 100 ng of the plasmids. […] As a result, cDNA for each of the HLA molecules which could present the antigen (A1, B37, Cw6) was used, separately, to cotransfect the cells. Specifically, one of 28 ng of the gene encoding HLA-A1 cloned into pCD-SRα, 50 ng of cDNA for HLA-B37 in pcDNA 1/Amp, or 75 ng of cDNA for HLA-Cw6 in pcDNAI-Amp, using the same protocols as were used for transfeclion with the library.
# Transfection was carried out in duplicate wells, but only 500 pools of the HLA-Cw6 transfectants could be tested in single wells. Following four hours of incubation at 37° C., the medium was removed, and replaced by 50 μl of PBS containing 10% DMSO. This medium was removed after two minutes and replaced by 200 μl of DMEM supplemented with 10% FCS.
# (§1) Following this change in medium, COS cells were incubated for 24-48 hours at 37° C. Medium was then discarded, and 1000-3000 cells of CTL clone 76/6 were added, in 100 μl of Iscove's medium containing 10% pooled human serum supplemented with 20-30 U/ml of recombinant IL-2. Supernatant was removed after 24 hours, and TNF content was determined in an assay on WEHI cells, as described by Traversari et al., Immunogenetics 35: 145-152 (1992), the disclosure of which is incorporated by reference.
# The bacteria of the selected pool were cloned, and 600 clones were tested. Plasmid DNA was extracted therefrom, transfected into a new sample of COS cells in the same manner as described supra, and the cells were again tested for stimulation of CTL clone 76/6. Ninety-four positive clones were found. One of these, referred to as cDNA clone 2D6, was tested further. In a comparative test COS cells were transfected with cDNA clone 2D6 and the HLA-Cw6 cDNA, HLA-Cw6 cDNA alone, or cDNA 2D6 alone. Control cell lines MZ2-MEL F and MZ2-MEL F^+ were also used. TNF release into CTL supernatant was measured by testing it on WEHI cells, as referred to supra. The number of surviving WEHI cells was measured by optical density after incubation of the cells with MTT.
# To assess whether the change at position 2 affected the antigenicity of the peptide, cDNA of the 6 GAGE cDNAs were individually transfected into COS cells together with the cDNA of HLA-Cw6, and the transfectants were tested for recognition by CTL 76/6 as described, supra. Only GAGE-1 and GAGE-2 transfected cells were recognized, showing that the modified peptide encoded by GAGE-3, 4, 5 and 6 was not antigenic in the context of this experiment.
# [2] = test system: CTL 22/23; test: TNF production by CTL 22/23 on COS-7 cells cotransfected with HLA-A29 and GAGE cDNA; type: cell-based, human; conditions: COS-7 cells transfected with HLA-A29 and the cDNA, 24 hours (FIG. 7)
# Experimental: as §1
# Once positive HLA-A29 clones were isolated, these were transfected into COS-7 using the DEAE-dextran chloroquine method out supra. In brief, 1.5×10^4 COS-7 cells were treated with 50 ng of plasmid pcDNA-I/Amp containing HLA-A29, and 100 ng of cDNA containing cDNA for one of the GAGE sequences mentioned supra, or one of the prior art MAGE or BAGE sequences in plasmid pcDNAα-I/Amp or pcDSR-α, respectively. The transfectants were then incubated for 24 hours at 37° C.
# The transfectants were then tested for their ability to stimulate TNF production by CTLs, using the assay explained at the end of example, 4, supra.
molecule,measurement,setting,value
"GAGE-3: cDNA highly related to GAGE, from MZ2-MEL.43 library (nucleic acid) DNA: CTCATATTTCACACAGATGAGTTGGCGAGGAAGATCGACCTATTATTGGTCTAGGCCAATAATAGGTCGATCTTCCTCGCCAACTCATATTTCACACAGATGAATCTCAGTAGAGGAAAATCGACCTATTATTGGCCTAGACCAAGGCGCTATGTACAGCCTCCTGAAGTGATTGGGCCTATGCGGCCCGAGCAGTTCAGTGATGAAGTGGAACCAGCAACACCTGAAGAAGGGGAACCAGCAACTCAACGTCAGGATCCTGCAGCTGCTCAGGAGGGAGAGGATGAGGGAGCATCTGCAGGTCAAGGGCCGAAGCCTGAAGCTGATAGCCAGGAACAGGGTCACCCACAGACTGGGTGTGAGTGTGAAGATGGTCCTGATGGGCAGGAGATGGACCCGCCAAATCCAGAGGAGGTGAAAACGCCTGAAGAAGGTGAAAAGCAATCACAGTGTTAAAAGAAGGCACGTTGAAATGATGCAGGCTGCTCCTATGTTGGAAATTTGTTCATTAAAATTCTCCCAATAAAGCTTTACAGCCTTCTGCAAAGAAAAAAAAAAAA",recognition by CTL 76/6 (TNF release),[1],not antigenic
same,stimulation of TNF production by CTL clone 22/23,[2],high levels of TNF production
"GAGE-4: cDNA highly related to GAGE, from MZ2-MEL.43 library (nucleic acid) DNA: CGCCAGGGAGCTGTGAGGCAGTGCTGTGTGGTTCCTGCCGTCCGGACTCTTTTTCCTCTACTGAGATTCATCTGTGTGAAATATGAGTTGGCGAGGAAGATCGACCTATTATTGGCCTAGACCAAGGCGCTATGTACAGCCTCCTGAAATGATTGGGCCTATGCGGCCCGAGCAGTTCAGTGATGAAGTGGAACCAGCAACACCTGAAGAAGGGGAACCAGCAACTCAACGTCAGGATCCTGCAGCTGCTCAGGAGGGAGAGGATGAGGGAGCATCTGCAGGTCAAGGGCCGAAGCCTGAAGCTGATAGCCAGGAACAGGGTCACCCACAGACTGGGTGTGAGTGTGAAGATGGTCCTGATGGGCAGGAGATGGACCCGCCAAATCCAGAGGAGGTGAAAACGCCTGAAGAAGGTGAAAAGCAATCACAGTGTTAAAAGAAGGCACGTTGAAATGATGCAGGCTGCTCCTATGTTGGAAATTTGTTCATTAAAATTCTCCCAATAAAGCTTTACAGCCTTCTGCAAAAAAAAAAAAAAAA",recognition by CTL 76/6 (TNF release),[1],not antigenic
same,stimulation of TNF production by CTL clone 22/23,[2],high levels of TNF production
"GAGE-5: cDNA highly related to GAGE, from MZ2-MEL.43 library (nucleic acid) DNA: AGCTGTGAGGCAGTGCTGTGTGGTTCCTGCCGTCCGGACTCTTTTTCCTCTACTGAGATTCATCTGTGTGAAATATGAGTTGGCGAGGAAGATCGACCTATTATTGGCCTAGACCAAGGCGCTATGTACAGCCTCCTGAAGTGATTGGGCCTATGCGGCCCGAGCAGTTCAGTGATGAAGTGGAACCAGCAACACCTGAAGAAGGGGAACCAGCAACTCAACGTCAGGATCCTGCAGCTGCTCAGGAGGGAGAGGATGAGGGAGCATCTGCAGGTCAAGGGCCGAAGCCTGAAGCTGATAGCCAGGAACAGGGTCACCCACAGACTGGGTGTGAGTGTGAAGATGGTCCTGATGGGCAGGAGATGGACCCGCCAAATCCAGAGGAGGTGAAAACGCCTGAAGAAGGTGAAAAGCAATCACAGTGTTAAAAGAAGGCACGTTGAAATGATGCAGGCTGCTCCTATGTTGGAAATTTGTTCATTAAAATTCTCCCAATAAAGCTTTACAGCCTTCTGCAAAGAAAAAAAAAAAA",recognition by CTL 76/6 (TNF release),[1],not antigenic
same,stimulation of TNF production by CTL clone 22/23,[2],high levels of TNF production
"GAGE-6: cDNA highly related to GAGE, from MZ2-MEL.43 library (nucleic acid) DNA: GCCAGGGAGCTGTGAGGCAGTGCTGTGTGGTTCCTGCCGTCCGGACTCTTTTTCCTCTACTGAGATTCATCTGTGTGAAATATGAGTTGGCGAGGAAGATCGACCTATTATTGGCCTAGACCAAGGCGCTATGTACAGCCTCCTGAAGTGATTGGGCCTATGCGGCCCGAGCAGTTCAGTGATGAAGTGGAACCAGCAACACCTGAAGAAGGGGAACCAGCAACTCAACGTCAGGATCCTGCAGCTGCTCAGGAGGGAGAGGATGAGGGAGCATCTGCAGGTCAAGGGCCGAAGCCTGAAGCTGATAGCCAGGAACAGGGTCACCCACAGACTGGGTGTGAGTGTGAAGATGGTCCTGATGGGCAGGAGGTGGACCCGCCAAATCCAGAGGAGGTGAAAACGCCTGAAGAAGGTGAAAAGCAATCACAGTGTTAAAAGAAGACACGTTGAAATGATGCAGGCTGCTCCTATGTTGGAAATTTGTTCATTAAAATTCTCCCAATAAAGCTTTACAGCCTTCTGCAAAAAAAAAAAAAAAA",recognition by CTL 76/6 (TNF release),[1],not antigenic
same,stimulation of TNF production by CTL clone 22/23,[2],high levels of TNF production
"GAGE-1: cDNA coding for GAGE tumor rejection antigen precursor, SEQ ID NO: 1 (nucleic acid) DNA: CTGCCGTCCGGACTCTTTTTCCTCTACTGAGATTCATCTGTGTGAAATATGAGTTGGCGAGGAAGATCGACCTATCGGCCTAGACCAAGACGCTACGTAGAGCCTCCTGAAATGATTGGGCCTATGCGGCCCGAGCAGTTCAGTGATGAAGTGGAACCAGCAACACCTGAAGAAGGGGAACCAGCAACTCAACGTCAGGATCCTGCAGCTGCTCAGGAGGGAGAGGATGAGGGAGCATCTGCAGGTCAAGGGCCGAAGCCTGAAGCTGATAGCCAGGAACAGGGTCACCCACAGACTGGGTGTGAGTGTGAAGATGGTCCTGATGGGCAGGAGATGGACCCGCCAAATCCAGAGGAGGTGAAAACGCCTGAAGAAGAGATGAGGTCTCACTATGTTGCCCAGACTGGGATTCTCTGGCTTTTAATGAACAATTGCTTCTTAAATCTTTCCCCACGGAAACCTTGAGTGACTGAAATATCAAATGGCGAGAGACCGTTTAGTTCCTATCATCTGTGGCATGTGAAGGGCAATCACAGTGTTAAAAGAAGACATGCTGAAATGTTGCAGGCTGCTCCTATGTTGGAAAATTCTTCATTGAAGTTCTCCCAATAAAGCTTTACAGCCTTCTGCAAAGAAAAAAAAAAAA",recognition by CTL 76/6 (TNF release),[1],recognized
same,recognition by CTL 76/6 (TNF release),[1]; listed as cDNA clone 2D6,stimulated TNF release
same,stimulation of TNF production by CTL clone 22/23,[2],do not stimulate CTL clone 22/23
"GAGE-2: cDNA highly related to GAGE, from MZ2-MEL.43 library (nucleic acid) DNA: ACGCCAGGGAGCTGTGAGGCAGTGCTGTGTGGTTCCTGCCGTCCGGACTCTTTTTCCTCTACTGAGATTCATCTGTGTGAAATATGAGTTGGCGAGGAAGATCGACCTATCGGCCTAGACCAAGACGCTACGTAGAGCCTCCTGAAATGATTGGGCCTATGCGGCCCGAGCAGTTCAGTGATGAAGTGGAACCAGCAACACCTGAAGAAGGGGAACCAGCAACTCAACGTCAGGATCCTGCAGCTGCTCAGGAGGGAGAGGATGAGGGAGCATCTGCAGGTCAAGGGCCGAAGCCTGAAGCTCATAGCCAGGAACAGGGTCACCCACAGACTGGGTGTGAGTGTGAAGATGGTCCTGATGGGCAGGAGATGGACCCGCCAAATCCAGAGGAGGTGAAAACGCCTGAAGAAGGTGAAAAGCAATCACAGTGTTAAAAGAAGACACGTTGAAATGATGCAGGCTGCTCCTATGTTGGAAATTTGTTCATTAAAATTCTCCCAATAAAGCTTTACAGCCTTCTGCAAAGAAAAAAAAAAAA",recognition by CTL 76/6 (TNF release),[1],recognized
same,stimulation of TNF production by CTL clone 22/23,[2],do not stimulate CTL clone 22/23
